To fix the notation:
B1: Ino80_(368–390) [Saccharomyces cerevisiae] / Taf14ET (Taf14_(174–244)) [Saccharomyces cerevisiae] (parent complex)
chain 1: DSKLNIKITLKQYHVKRLKKLIN
chain 2: KGSVDLEKLAFGLTKLNEDDLVGVVQMVTDNKTPEMNVTNNVEEGEFIIDLYSLPEGLLKSLWDYVKKNTE
B2: Sth1EBM (Sth1_(1183–1240)) [Saccharomyces cerevisiae] / Taf14ET (Taf14_(174–244)) [Saccharomyces cerevisiae] (parent complex)
chain 1: EVKSSSVEIINGSESKKKKPKLTVKIKLNKTTVLENNDGKRAEEKPESKSPAKKTAAK
chain 2: B1 chain 2
B3: Sth1^WT-TAP [Saccharomyces cerevisiae] / Taf14-HA [Saccharomyces cerevisiae] (parent complex)
chain 1: MLQEQSELMSTVMNNTPTTVAALAAVAAASETNGKLGSEEQPEITIPKPRSSAQLEQLLYRYRAIQNHPKENKLEIKAIEDTFRNISRDQDIYETKLDTLRKSIDKGFQYDEDLLNKHLVALQLLEKDTDVPDYFLDLPDTKNDNTTAIEVDYSEKKPIKISADFNAKAKSLGLESKFSNATKTALGDPDTEIRISARISNRINELERLPANLGTYSLDDCLEFITKDDLSSRMDTFKIKALVELKSLKLLTKQKSIRQKLINNVASQAHHNIPYLRDSPFTAAAQRSVQIRSKVIVPQTVRLAEELERQQLLEKRKKERNLHLQKINSIIDFIKERQSEQWSRQERCFQFGRLGASLHNQMEKDEQKRIERTAKQRLAALKSNDEEAYLKLLDQTKDTRITQLLRQTNSFLDSLSEAVRAQQNEAKILHGEEVQPITDEEREKTDYYEVAHRIKEKIDKQPSILVGGTLKEYQLRGLEWMVSLYNNHLNGILADEMGLGKTIQSISLITYLYEVKKDIGPFLVIVPLSTITNWTLEFEKWAPSLNTIIYKGTPNQRHSLQHQIRVGNFDVLLTTYEYIIKDKSLLSKHDWAHMIIDEGHRMKNAQSKLSFTISHYYRTRNRLILTGTPLQNNLPELWALLNFVLPKIFNSAKTFEDWFNTPFANTGTQEKLELTEEETLLIIRRLHKVLRPFLLRRLKKEVEKDLPDKVEKVIKCKLSGLQQQLYQQMLKHNALFVGAGTEGATKGGIKGLNNKIMQLRKICNHPFVFDEVEGVVNPSRGNSDLLFRVAGKFELLDRVLPKFKASGHRVLMFFQMTQVMDIMEDFLRMKDLKYMRLDGSTKTEERTEMLNAFNAPDSDYFCFLLSTRAGGLGLNLQTADTVIIFDTDWNPHQDLQAQDRAHRIGQKNEVRILRLITTDSVEEVILERAMQKLDIDGKVIQAGKFDNKSTAEEQEAFLRRLIESETNRDDDDKAELDDDELNDTLARSADEKILFDKIDKERMNQERADAKAQGLRVPPPRLIQLDELPKVFREDIEEHFKKEDSEPLGRIRQKKRVYYDDGLTEEQFLEAVEDDNMSLEDAIKKRREARERRRLRQNGTKENEIETLENTPEASETSLIENNSFTAAVDEETNADKETTASRSKRRSSRKKRTISIVTAEDKENTQEESTSQENGGAKVEEEVKSSSVEIINGSESKKKKPKLTVKIKLNKTTVLENNDGKRAEEKPESKSPAKKTAAKKTKTKSKSLGIFPTVEKLVEEMREQLDEVDSHPRTSIFEKLPSKRDYPDYFKVIEKPMAIDIILKNCKNGTYKTLEEVRQALQTMFENARFYNEEGSWVYVDADKLNEFTDEWFKEHSS
chain 2: MVATVKRTIRIKTQQHILPEVPPVENFPVRQWSIEIVLLDDEGKEIPATIFDKVIYHLHPTFANPNRTFTDPPFRIEEQGWGGFPLDISVFLLEKAGERKIPHDLNFLQESYEVEHVIQIPLNKPLLTEELAKSGSTEETTANTGTIGKRRTTTNTTAEPKAKRAKTGSASTVKGSVDLEKLAFGLTKLNEDDLVGVVQMVTDNKTPEMNVTNNVEEGEFIIDLYSLPEGLLKSLWDYVKKNTE
B4: Snf5_(771–800) [Saccharomyces cerevisiae] / Taf14ET (Taf14_(174–244)) [Saccharomyces cerevisiae] (parent complex)
chain 1: SPPCYIIDHIPGHSLLLSIKLPGKVNTKEE
chain 2: B1 chain 2

In PMC7442819, “Taf14 recognizes a common motif in transcriptional machineries and facilitates their clustering by phase separation” (Nature Communications, 2020) one finds Kd and ratio to parent data, which are given here for 13 variants.

Variants of B1 are the subject of one assay. The experiment in a line: ITC; parent: 250 nM. On the technique in general: Isothermal titration calorimetry measures the heat released or taken up as one component is titrated into another.
Usually Kd stands for a measure of binding affinity in units of concentration. Regarding chain 1 L10A, the dissociation constant Kd amounted to 3.87 µM.

For the variant chain 1 I6A, the dissociation constant (Kd) was 3.86 µM.

In another assay the parent is B2. The experiment in a line: ITC; parent: 50 nM.
For the variant chain 1 I26A, the dissociation constant (Kd) is 13.4 µM. Same read-out and setting: the figure for chain 1 L22A is 2.06 µM.

In the case of chain 1 K27E, the dissociation constant (Kd) was found to be 3.94 µM. Same read-out and setting: the value for chain 1 L28A was 1.14 µM.

Consider chain 1 V24A, for which the equilibrium dissociation constant (Kd) stood at 2.04 µM.

In the case of chain 1 K25E, the Kd is 7.69 µM.

The next assay covers variants of B2. The assay can be described thus: ITC; parent: 50 nM. This is another data set of the same source.
In the case of chain 2 F47A, the dissociation constant (Kd) came to 0.68 µM. The same measure, in the same setting: the figure for chain 2 F47R is 3.5 µM.

Another assay covers variants of B3. The experiment in a line: Co-immunoprecipitation; IP: HA; IB: anti-TAP; parent: 1.
Take chain 1 L1204A, chain 1 V1206A, chain 1 I1208A, chain 1 L1210A: the ratio to parent was 0.38.

Variants of B4 are the subject of a further assay. The experiment in a line: ITC; parent: 2.48e+03 nM.
As for chain 1 I19A, the equilibrium dissociation constant (Kd) is 189 µM. Still for that read-out and setting: the figure for chain 1 L17A is 41.5 µM.
